Data reported in article PMC8838988.

Target: PiCDPK1, full-length 6X N-terminal His-fusion protein (Petunia inflata)
Sequence (main, as listed by the source): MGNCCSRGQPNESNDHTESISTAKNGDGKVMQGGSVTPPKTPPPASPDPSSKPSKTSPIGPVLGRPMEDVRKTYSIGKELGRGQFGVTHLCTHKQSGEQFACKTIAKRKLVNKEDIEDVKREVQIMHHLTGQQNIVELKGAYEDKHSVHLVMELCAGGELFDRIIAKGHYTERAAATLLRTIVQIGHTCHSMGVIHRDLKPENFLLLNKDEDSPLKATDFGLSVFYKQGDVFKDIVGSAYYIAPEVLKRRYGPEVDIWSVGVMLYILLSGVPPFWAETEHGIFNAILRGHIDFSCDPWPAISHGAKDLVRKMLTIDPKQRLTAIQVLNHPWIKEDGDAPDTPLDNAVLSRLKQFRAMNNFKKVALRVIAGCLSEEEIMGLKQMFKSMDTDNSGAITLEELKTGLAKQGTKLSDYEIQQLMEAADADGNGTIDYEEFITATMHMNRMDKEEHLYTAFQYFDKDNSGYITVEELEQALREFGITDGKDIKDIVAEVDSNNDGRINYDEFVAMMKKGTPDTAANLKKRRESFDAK

Km of the phosphorylation of PiRhoGDI1 by PiCDPK1 (Michaelis-Menten conditions): 2.2 µM
Vmax of the phosphorylation of PiRhoGDI1 by PiCDPK1 (Michaelis-Menten conditions): 1920 pmol/min/mg
Substance: PiRhoGDI1, full-length 6X N-terminal His-fusion protein (natural protein)
